Read-outs that look alike come from different tables or passages of the source.
Experiments:
[1] = target: affinity purified β2GPI-dependent antiphospholipid antibody from patient 6203; test: comp. inhibition ELISA
[2] = target: affinity purified β2GPI-dependent antiphospholipid antibody from patient 6509; test: comp. inhibition ELISA
[3] = target: affinity purified β2GPI-dependent antiphospholipid antibody from patient 6632; test: comp. inhibition ELISA
[4] = target: affinity purified β2GPI-dependent antiphospholipid antibody from patient 6644; test: comp. inhibition ELISA
[5] = target: affinity purified β2GPI-dependent antiphospholipid antibody from patient 6652; test: comp. inhibition ELISA
[6] = target: affinity purified β2GPI-dependent antiphospholipid antibody from patient 7008; test: comp. inhibition ELISA
[7] = target: affinity purified β2GPI-dependent antiphospholipid antibody from patient 7101; test: comp. inhibition ELISA
[8] = target: affinity purified β2GPI-dependent antiphospholipid antibody from patient 7104; test: comp. inhibition ELISA
[9] = target: affinity purified β2GPI-dependent antiphospholipid antibody preparation 6641 (from patient 6641); test: comp. inhibition ELISA
[10] = target: β2GPI-dependent antiphospholipid antibody from patient 6501; test: comp. inhibition ELISA
[11] = target: β2GPI-dependent antiphospholipid antibody from patient 6626; test: comp. inhibition ELISA
[12] = target: β2GPI-dependent antiphospholipid antibody from patient 6701; test: comp. inhibition ELISA
[13] = target: β2GPI-dependent antiphospholipid antibody from patient 7015; test: comp. inhibition ELISA
[14] = target: affinity purified β2-GPI domain 1 specific antibodies from patients 6701 and 6626; test: Surface plasmon resonance Kd determination on immobilized antibodies; assay type: binding, human; details: read-out: Apparent equilibrium dissociation constant
Description: Reagents. CM5 chips, NHS and EDC and HBS-EP buffer were from BIAcore. Human pooled normal IgG (Zymed) was immobilized in a separate flow cell on the chip and used as a negative control. Affinity purified 2-GPI domain 1 specific antibodies from 2 patients (6701 and 6626) were immobilized in separate flow cells.
Surface Plasmon Resonance. All experiments were done on a BIAcore™ 2000 instrument at 25° C. with a flow rate of 10 μL/minute. Chip equilibration and binding studies were performed with degassed HBS-EP buffer, which consists of 0.01 M HEPES pH 7.4, 0.15 M NaCl, 3 mM EDTA and 0.005% (v/v) surfactant β20. […]
Titrations. […] Since the approach to binding equilibrium was incomplete during the measurement period, the equilibrium binding value (Req) was determined by fitting the association curves to the following equation using the manufacturer software (BiaEvaluation version 2.2, Uppsala, Sweden)): Rt=Req(1−e^−ks(t−t0))+R0 where Rt is the measured BIAcore response at time t, Req is the equilibrium plateau response, t is time, t0 is initial time, ks is an apparent association constant (ks=kaC+kdis where ka is the association constant, C is the analyte concentration and kdis is the dissociation constant), and R0 is a response offset, (Marquart-Levenberg algorithm). […]

[15] = system: antiphospholipid antibody in plasma from patient 6501; test: Competitive antibody binding ELISA with patient plasma on β2GPI coated plates; set-up: species or system human; details: plasma patient 6501, 1:200
Description: Nunc Maxisorp microplates (Nalge Nunc International, Denmark) were coated with 100 μL/well of β2GPI at 2.5 μg/mL in PBS, incubated for 2 hours at room temperature, and blocked for 2 hours at room temperature with 250 μl/well of 2% nonfat milk with […] (Sigma Chemical Co.). […] After incubation for one hour at room temperature the plates were washed 5× with TBS. To each well was added 100 μL of alkaline phosphatase-conjugated anti-human IgG, gamma chain specific (Zymed) diluted 1:1000 in 2% nonfat milk with 0.4% Tween-80. After one hour at room temperature the plates were washed 5× with TBS. To each well was added 100 μl PPMP chromogenic substrate solution for color development at room temperature. Optical absorbance per well was determined at A550nm in a commercial microplate reader (Bio-Tek Instruments EL3 11).

B1: recombinant β2GPI domain 5 with GlyHis6 (----5) (protein)
chain: GRASCKLPVKKATVVYQGERVKIQEKFKNGMLHGDKVSFFCKNKEKKCSYTEDAQCIDGTIEVPKCFKEHSSLAFWKTDASDVKPCGHHHHHH
IC50 [1]: > 47 µM
Max inhibition [1]: 5%
IC50 [2]: > 47 µM
Max inhibition [2]: 10%
IC50 [3]: > 47 µM
Max inhibition [3]: 10%
IC50 [4]: > 47 µM
Max inhibition [4]: 10%
IC50 [5]: > 47 µM
Max inhibition [5]: 15%
IC50 [6]: > 47 µM
Max inhibition [6]: 20%
IC50 [7]: > 47 µM
Max inhibition [7]: 5%
IC50 [8]: > 47 µM
Max inhibition [8]: 0%
IC50 [9]: > 47 µM
Max inhibition [9]: 10%
IC50 [10]: > 47 µM
Max inhibition [10]: 10%
IC50 [11]: > 47 µM
Max inhibition [11]: 10%
IC50 [12]: > 47 µM
Max inhibition [12]: 10%
IC50 [13]: > 47 µM
Max inhibition [13]: 10%

B2: 1----: recombinant β2GPI protein with domain 1 only (SEQ ID NO:4 region), His6 tail (protein)
chain: GRTCPKPDDLPFSTVVPLKTFYEPGEEITYSCKPGYVSRGGMRKFICPLTGLWPINTLKCTPRVGHHHHHH
Kd ([14]; immobilized antibody from patient 6626): 0.333 ± 0.018 µM
Kd ([14]; immobilized antibody from patient 6701): 0.417 ± 0.036 µM
competition for antiphospholipid antibody binding to β2GPI [15]: Competitive binding is also exhibited

— patent US6858210B1, “Therapeutic and diagnostic domain 1 β2GPI polypeptides and methods of using same” (La Jolla Pharmaceutical Co., priority 1998, dated 2005)
